Results published in the nanobody polyreactivity screen of Harvey et al. (2022).

Assay: yeast display, Sf9 membrane polyspecificity reagent, FACS + sequencing; frameworks hold sequencing errors
How it was run: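 A nanobody's polyreactivity label depends on the gate it was sorted from. Yeast display cells were stained with 10% biotinylated, detergent-solubilized Sf9 membrane reagent for 1 hour at 4 °C, enriched on streptavidin microbeads and sorted by FACS. The low and high (top ~1%) gates were set on anti-HA fluorescence for expression and streptavidin fluorescence for reagent binding.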

Sequence | polyreactivity (PSR sort gate)
QVQLVESGGGLVQAGGSLRLSCAASGSIFYFNAMGWYRQAPGKERELVASITSGGSTNYADSVKGRFTISRDNAKNTVYLQMNSLKPEDTAVYYCNARFPYLSRWLVRGLASYDYWGQGTQVTVSS | low polyreactivity
QVQLVESGGGLVQAGGSLRLSCAASGSTFSDYAMGWYRPEPGKERELDATITSTGDTNYADSVKGRFTMSRDNAKTTVYLQMNSLKPEDTAVYYCAAQHKKYGKRGRWNNFGYWGQGTQVTVSS | low polyreactivity
QVQLVDSGGGLVQAGGSLRLSCAASGFIFKRYAMGWYRQAPGKERELVAAINGGGSSTYYADSVKGRFTISRDNAKNTVYLQMNSLKPDDTAVYYCAADTDSWWYYLYYGEGFDYWGQGTQVTVSS | high polyreactivity
QVQLVESGGGLVQAGGSLRLSCAASGRIFGPYAMGWYRPAPGKERELVAVISLSGGRTYYADSVKGRFTISRDNAKNTVYLQMNSLKPEDTAVYYCAAARIYVGRRFDFWGQGTQVTVSS | high polyreactivity
QVQLVESGGGLVQAGGSLRLSCAASGSTFGSYAMRWYRQAPGKERELVAAITASGGSTYYADSVKGRFTISRDNAKNTVYLQMNSLKPEDTAVYYCAADTTYIPLSIEYDYWGQGTQVTVSS | low polyreactivity
QVQLVESGGGLVQAGGSLRLSCAASGGIFYLNAMGWYRQAPGKERELVAAISSGVSTYYADSVKGSFTISRDNAKNTVYLKMNSLKPEDTAVYYCNADYNYPAWVGSWWDYDYWGQGTQVTVTS | low polyreactivity
QVQLVESGGGLVQAGGSLRLSCAASGLIFYFYAMGWYRQAPGKERELVAAISSRGGRTYYADSVKGRFTISRDNAKNTVYLQMNSLKPEDTAVYYCNVDQLLRRTSAQGDYWGQGTQVTVSS | high polyreactivity
QVQLVESGGGLVQAGGSLSLSCAASGSTFNRYAMRSYRQAPGQESELVDTINLNTGSTYADSVKGRFTISRDNAKNTVYLEMNSVKPEDTAVYYCAAVGQTHPTSPLSTKYDYWGQGTQVTVSS | low polyreactivity
QVQLVESGGGLVQAGGSLRLICAASGNIFVPSAMGWYRQAPGKERELVAAINGGGSTNYADSVKGRFTISRDNAKNTVYIQMISLKPEDTAVNYCAAVWYFLSLWYDYWGQGTQVTVSS | high polyreactivity
QVQLVESGGGLVQAGGSLRLSCAASGLTFYLYDMGWYRQAPGKERELVAAISRRGTSTYYADSVKGRFTISRDNAKNTVYLQMNSLKPEDTAVYYCAADRKFGRDYWGQGTQVTVSS | high polyreactivity
QVQLVESGGGLVQAGGSLRLSCAASGSIFYYYVRGWYRQAPGKEREFVAAISWGGDSTYYADSVKGRFTISRDNAKNTFYLQMNSLQPEDTAVYYCNADYPWSVVGYDYWAQGTQVTVSS | low polyreactivity
QVQLVESGGGLVQAGGSLRLSCAASGLTFPFYAMGWYRQAPGKERELVAAITGSGGITYYADSVKGRFTISRDNAKNTVYLQMNSLKPEETAVYYCAFDYTYYTSFVPLFGFDYWGQGTQVTVSS | low polyreactivity
QVQLQESGGGLVQASGSLRLSCAASGNIFPDYVMGWYRLAPGKEREFVANITGGSTTNYADSVKGRFTISRDNAKNTVYLQMNSLKPEDTAVYYCAVNFGTVVLYLYWGQGTQVTVSS | high polyreactivity
QVQLVESGGGLVQAGGSLRLSCAASGSTVVRYGMGSYRQAPGKERELVAVISRSGGSTYYADSVKARFTISRDNAKNTVFLQMNSLKPEDTAVYYCAITRYGNPNSGGVGYWGQGTQVTVSS | high polyreactivity
QVQLVESGGGLVQAGGSLRLSCAASGITFSYYAMGWYRPAPGKERELVAAINSGGGSTYYADSVKGRFTISRDNAKNTVFLQMNSLKPDDTAVYYCAARYRSRYEYYYDRDYWGQGTQVSVSS | low polyreactivity
QVQLVESGGGLVQAGGSLRLSCAASGSIFSTNAMGWYRQAPGKERELVAGISSDDSTYADSVKGRFTISRDNAKNTVYLQMNSLKQADTAVYYCAAEDNWYNVGYYYWGQGTQVTVSS | low polyreactivity
